US20240218057A1 (ROCKEFELLER UNIVERSITY, published 2024)

B1: C1019 (antibody, V domains shown)
VH: QVQLVESGGGVVQPGTPLRLSCAASGFTFSSYAMHWVRQAPGKGLEWVAMISYDGGNKYYADSVKGRFTISRDNSKNTLFLQMNSLRGEDTAVYYCARSFSIRIGHKDNWGQGTLVTVSS
VL: NFMLTQPHSVSESPGKTVTISCTGSSGSIANNYVQWYQQRPGSAPTPVIYEDDQRPSGVPDRFSGSIDSSSNSASLSISGLKTEDEADYYCQSYDSTNFWVFGGGTKLTVL
notes: IgG; V domains only
B2: C1024 (antibody, V domains shown)
VH: QVQLVESGGGVVQPGRSLRLSCAASGFTFSDYAMHWVRQAPGKGLEWVAMISYDGNSQYYADSVKGRFTISRDNSKNTLYLQMNILRPEDTAVYYCARTFSIRIGHHDYWGQGTLVTVSS
VL: NFMLTQPHSVSESPGKTVTISCTGSSGSIASNYVHWYQQRPGSAPTTVIFEDNQRPSGVPDRFSGSIDSSSNSASLTISGLKTEDEADYYCQSYDSSSFWVFGGGTKLTVL
notes: IgG; V domains only
B3: C1038 (antibody, V domains shown)
VH: QVQLVQSGAEVKKPGASVKVSCKASGYTFTSYYMHWVRQAPGQGLEWMGIINPSGGSTRYAQKFQGRVTMTRDTSTSTVYMELSSLRSEDTAVYYCAREGVGGTSYFDYWGQGTLVTVSS
VL: SYELTQPPSVSVAPGKTARITCGGNNIGSKSVHWYQQKPGQAPVLVVYDDSDRPSGIPERFSGSNSGNTATLTISRVEAGDEADYYCQVWDSSSDPYVFGTGTKVTVL
notes: IgG; V domains only
B4: C1039 (antibody, V domains shown)
VH: QVQLVQSGAEVKKPGASVKVSCKASGYTFTSHYMHWVRQAPGQGLEWMGIINPRTRYAQMFQGRVSMNRDTSTSTVYMELSSLTSEDTAVYYCAREGLGATAYFDYWGQGTLVTVSS
VL: SYELTQPPSVSVAPGKTAGITCGGSDIGSKSVHWYQQKPGQAPVLVVYDDSDRPSGIPERFSGSNSGNTATLTISRVEAGDEADYYCQVWDSSSDPYVFGTGTKVSVL
notes: IgG; V domains only
B5: C1022 (antibody, V domains shown)
VH: QVQLVQSGAEVKTPGASVKVSCQASGDTFTSQYLHWVRQAPGQGLEWMGIINPTAGSTTYAQKFQGRVTMTRDTSTSTVYMELRSLRSEDMAVYYCARGGFIPMVRGFIDHWGQGTLVTVSS
VL: QSALTQPASVSGSPGQSITISCTGTSSDVGGYNYVSWYQQHPGKAPKLMIYDVSNRPSGVSTRFSGSKSGNTASLTISGLQAEDEADYYCSSPTSSNTHVFGTGTKVTVL
notes: IgG; V domains only
B6: C1028 (antibody, V domains shown)
VH: QVQLVESGGGVVQPGRSLRLSCADSGFTFSSSGMHWVRQAPGKGLEWVGVISYDGGNKYYADSVKGRFTISRDNSKNTLYLQMNSLRAEDTAVYYCAKDTPGGDDIMTGWGLYGMDVWGQGTTVTVSS
VL: DIQMTQSPSSLSASVEDRVTITCRASQSISSYLNWYQQKPGKAPKLLIYAAISLQSGVPSRFSGSGSGTEFTLTISSLQPEDFATYYCQQSYTTPWAFGQGTKVEIK
notes: IgG; V domains only
B7: C1032 (antibody, V domains shown)
VH: EVQLVESGGSLVKPGGSLRLSCVASGLTFNHAWMSWVRQAPGKGLEWVGRIKSKIDGGTTDYAAPVKGRFTISRDDSKSTQYLQMNSLKTEDTAVYYCTTDCFWRLGGTTCYEHDAFDVWGQGTMVTVS
VL: DIQMTQSPSSLSASVGDRVTITCRASQAIATFLNWYQQKPGKAPKLLIYAASSLQSGVPSRFSGSGSGTDFTLTISSLQPEDFATYYCQQSYNSLHFGGGTKVEIK
notes: IgG; V domains only
B8: C1044 (antibody, V domains shown)
VH: QVQLQESGPGLVKPSQTLSLTCTVSGGSISSGNYYLTWIRQPAGKGLEWIGHIYTSGSTNYNPSLKSRVTISVDTSMNQFSLKLSSVTAADTAVYYCARDIPPTWYFDLWGRGTLVTVSS
VL: SYELTQPPSVSVAPGKTARITCGGNNIGSKNVHWYQQKPGQAPVLVVYDDSDRPSGIPERFSGSNSGNTATLTISRVEAGDEAGYYCQVWDSTSDHLFWVFGGGTKLTVL
notes: IgG; V domains only
B9: C1020 (antibody, V domains shown)
VH: QVQLVQSGAEVKKPGASVKISCKASGYSFSNYYIHWVRQAPGQGLEWMGIINPSGNSISYAQKFQGRVTMTGDTSTSTVYMELSSLRSEDTAVYYCARSVFPVPAAGGCDYWGQGTLVTVSS
VL: DIQMTQSPSSLSASVGDRVTITCRASQSITTSLNWYQQKPGKAPKLLIYSASTLESGVPSRFSGSGSGTDFTLTISSLQPEDFATYYCQQTYRAPPYTFGQGTKLEIK
notes: IgG; V domains only
B10: C1031 (antibody, V domains shown)
VH: QLQLQESGPGLVKPSETLSLTCTVSGGSINTSTYYWGWIRQPPGKGLEWIGNIYYSGITYYNPSLKSRVTISVDTSKNQFSLKLRSVTAADTAVYYCARQHRFGSGSSELLWGQGTLVTVSS
VL: QSALTQPPSASGSPGQSVTISCTGTSSDVGSYNYVSWYQQHPGKAPKLMIYEVTKRPSGVPDRFSGSKSGNTASLTVSGLQADDEADYYCSSYAGSSNLVFGGGTKLTV
notes: IgG; V domains only
B11: C1033 (antibody, V domains shown)
VH: QVQLVQSGAEVKKPGSSVKVSCKASGGTFSRNVISWVRQAPGQGLEWMGGIIPMFGTANYAQKFQGRVTISADESTSTAYMELSSLRSEDTAVYYCAREDFILESAPIRENSYYYYGMDVWGQGTTVTVSS
VL: EIVLTQSPGTLSLSPGERATLSCRASQSVSSNYLAWYQQKPGQAPRLLIYDASSRATGIPDRFSGSGSGTDFTLTIRRLEPEDFAVYYCQQYGGSPRTFGQGTKVEIK
notes: IgG; V domains only
B12: C1035 (antibody, V domains shown)
VH: EVQLVESGGGLIQPGGSLRLSCAASGLTVSRNYMNWVRQAPGKGLEWVSVMYSGGSTFYADSVKGRFTISRDNSKNTLYLQMNSLRAEDTAVYYCARESYGMDVWGQGTTVTVSS
VL: EIVLTQSPGTLSLSPGERATLSCRASQSFSSTYLAWYQQKPGQAPRLLIYGASSRATGIPDRFSGSGSGTDFTLTISRLEPEDFAVYYCQQYVTSPWTFGQGTKVEIK
notes: IgG; V domains only
B13: C1036 (antibody, V domains shown)
VH: EVQLVESGGGLIQPGGSLRLSCAASGLIVSRNYMNWVRQVPGKGLEWVSVMYAGGSTFYADSVKGRFTISRDDSKNTLYLQMNSLRPEDTAVYYCARESYGMDVWGQGTTVTVSS
VL: EIVLTQSPGTLSLSPGERATLSCRASQSISSTYLAWYQQKPGQAPRLLIYGASSRATGIPDRFSGSGSGTDFTLTISRLEPEDFAVYYCQQYVTSPWTFGQGTKVEIK
notes: IgG; V domains only
B14: C1025 (antibody, V domains shown)
VH: EVQLVESGGGLVQPGRSLRLSCAASGFTFDDYAMHWVRQVPGKGLEWVSGVSWNGDSVGYADSMEGRFTISRDNAKNSLYLQMNSLRTEDTALYYCAKGVDYSSSSNFDFWGQGTLVTVSS
VL: DIQMTQSPSSVSASVGDRVTITCRASQGISSWLAWYQQKPGKAPKLLISLASSLQSGVPSRFSGSGSETDFTLIISSLQPEDFATYYCQQSSSFPLTFGGGTKVEIK
notes: IgG; V domains only
B15: C1023 (antibody, V domains shown)
VH: QVQLVQSGAEMKKPGASVKISCKASGDTFTTNYFHWVRQAPGQGLEWMGIINPSAGSTTYAQRFQGRVTMTGDSSTNTVYLELRSLRSEDTAMYFCAKGSYIPAMRSSFDPWGQGTLVTVSS
VL: EIVLTQSPGTLSLSPGERATLSCRASQSVSHRYLAWYQQKPGQAPRLLIDGASNRATGIPDRFSGSGSGTDFTLTISRLEPEDFGVYYCQQYGSSPPFTFGQGTKLEIK
notes: IgG; V domains only
B16: C1027 (antibody, V domains shown)
VH: EVQLVESGGGLVQPGGSLRLSCAASGFIVTTNYMSWVRQAPGKGLEWVSLIYPGGSTFYADSVEGRFTISRDNSKNTLYLQVNSLRVEDTAVYYCARDTFGRGDDHWGQGTLVTVSS
VL: DIQMTQSPSSLSASVGDRVTITCQASQDINIYLNWYQQRPGKAPKLLIYDASNLQTGVPSRFSGSGSGTDFTITISSLQPEDIATYYCQQYDNLPRSFGQGTKLEI
notes: IgG; V domains only
B17: C1029 (antibody, V domains shown)
VH: QVQLVESGGGVVQPGRSLRLSCAASGFTFSSFGMHWVRQAPGKGLEWVAVISYDGSYKDYGDSVKGRFTISRDNSKNTLYLQMNSLRAEDTAVYYCARDSNVDTVMVTWFDYWGRGTLVTVSS
VL: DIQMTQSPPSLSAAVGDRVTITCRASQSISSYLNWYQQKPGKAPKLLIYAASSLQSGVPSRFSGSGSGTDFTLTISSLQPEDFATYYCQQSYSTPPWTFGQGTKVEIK
notes: IgG; V domains only
B18: C1021 (antibody, V domains shown)
VH: QVQLVQSGAELKKPGASVKVSCKASGYTFSTYYIHWVRQAPGQGLEWMGIINPEAGSTSYAQKFQGRVTMTTDTSTSTVYMELISLRSQDTAIYYCARDAVGVPAINSLEYWGQGTLVTVSS
VL: EIVLTQSPATLSLSPGERATLSCRASQSISSYLAWYQQKPGQAPRLLIYDASNRATDISARFSGSGSGTDFTLTISSLEPEDFAVYYCQHRSNWPPSFTFGGGTKVEIK
notes: IgG; V domains only
B19: C1026 (antibody, V domains shown)
VH: QVQLVESGGGVVQPGKSLRLSCAASGFIFSSYSMHWVRQAPGKGLEWVAVVSNDGSGKFYADSVRGRFTIFRDNSKNTLYLQVSSLRAEDTAVYYCARDALTSISVLFDCWGQGTLVTVSS
VL: DIQMTQSPSSLSASLGDRVTITCRASQSISNYLNWYQQKPGKAPKLLIYGASSLQSGVPSRFSGSGSGTDFTLTISNLQPEDFATYFCQQSYSTPSVTFGGGTKVEIK
notes: IgG; V domains only
B20: C1034 (antibody, V domains shown)
VH: QLQLQESGPGLVKPSETLSLTCTVSGGSVSSNNHYWGWIRQPPGKGLEWIGSISSSGSTHHNPSLRSRVTISVDTSKNHFSLKLNSVTATDTAVYYCARVDSSGWYTGDVFDVWGQGTMVTVSS
VL: DIQMTQSPSSLSASVGDRVTITCRASQTINNYLNWYQQKPGKPPKLLIYAAFSLHSGVPSRFSGSRSGTDFTLTISSLQPEDFATYYCQHSYSTMCSFGQGTKLEIK
notes: IgG; V domains only
B21: C1041 (antibody, V domains shown)
VH: QVQLVQSGAEVKKPGASVKVSCKASGYTFSDHYIYWVRQAPGQGLEWMGIINPSAGSTSYAQKFQGRVTMTRDTSTSTVYMELSSLRSEDTAVYYCARDIVFVPATMAMDVWGLGTTVTVSS
VL: EIVLTQSPATLSLSPGERATLSCRASQSVSRYLAWYQQKPGQAPRLLIYDASNRATGIPARFSGSGSGTDFTLTISSLEPEDFAVYYCQQRSNWLFTFGPGTKVDIK
notes: IgG; V domains only
B22: C1042 (antibody, V domains shown)
VH: QVQLVQSGAEVKKPGASVKVSCKASGYTFSDHYIYWVRQAPGQGLEWMGIINPSGGSTSYAQKFQGRVTMTRDTSTSTVYMELSSLKSEDTAVYYCSRDIVFVPATMAMDVWGQGTTVTVSS
VL: EIVLTQSPATLSLSPGERATLSCRASQSVSRYLAWYQQKPGQAPRLLIYDASNRATGIPARFSGSGSGTDFTLTISSLEPEDFAVYYCQQRSNWLFTFGPGTKVDIK
notes: IgG; V domains only

target: T1, SARS-COV-2 RBD (SARS-COV-2, UniProt P0DTC2 319-539); experiment: ELISA, RBD coated
T1 construct: also called WT RBD

B1 and B2 are within 1.5-fold of each other in EC50: 2.8 ng/mL for the first, 2.37 ng/mL for the second.

B3 and B4 are within 1.5-fold of each other in EC50: 2.46 ng/mL for the first, 2.61 ng/mL for the second.

First: B5
Second: B6
The EC50 of the first is 2.2-fold lower: 1.66 ng/mL for the first, 3.58 ng/mL for the second.

B7 and B8 are within 1.5-fold of each other in EC50: 2.89 ng/mL for the first, 3.22 ng/mL for the second.

First: B9
Second: B10
The EC50 of the first is 4.2-fold lower: 2.06 ng/mL for the first, 8.71 ng/mL for the second.

Compared with B11, B12 is 1.8-fold lower in EC50: 3.63 ng/mL for the first, 2.05 ng/mL for the second.

B13 and B14 are within 1.5-fold of each other in EC50: 1.76 ng/mL for the first, 2.51 ng/mL for the second.

First: B15
Second: B16
The EC50 of the first is 2.1-fold lower: 1.13 ng/mL for the first, 2.42 ng/mL for the second.

B17 and B18 are within 1.5-fold of each other in EC50: 2.86 ng/mL for the first, 2.53 ng/mL for the second.

B19 and B20 are within 1.5-fold of each other in EC50: 2.5 ng/mL for the first, 2.77 ng/mL for the second.

B21 and B22 are within 1.5-fold of each other in EC50: 3.65 ng/mL for the first, 4.55 ng/mL for the second.
